Results as given in article doi:10.1101/2021.08.02.454737.
Substitutions are numbered along the chain they refer to.

Experiments:
[1] = biological target: T1, UPF1 RM-3F (RNA mutant, UPF1R RM-3F) (human, UniProt Q92900-2 1-1118, N524A;K547A;R843A); test: MST
T1 sequence: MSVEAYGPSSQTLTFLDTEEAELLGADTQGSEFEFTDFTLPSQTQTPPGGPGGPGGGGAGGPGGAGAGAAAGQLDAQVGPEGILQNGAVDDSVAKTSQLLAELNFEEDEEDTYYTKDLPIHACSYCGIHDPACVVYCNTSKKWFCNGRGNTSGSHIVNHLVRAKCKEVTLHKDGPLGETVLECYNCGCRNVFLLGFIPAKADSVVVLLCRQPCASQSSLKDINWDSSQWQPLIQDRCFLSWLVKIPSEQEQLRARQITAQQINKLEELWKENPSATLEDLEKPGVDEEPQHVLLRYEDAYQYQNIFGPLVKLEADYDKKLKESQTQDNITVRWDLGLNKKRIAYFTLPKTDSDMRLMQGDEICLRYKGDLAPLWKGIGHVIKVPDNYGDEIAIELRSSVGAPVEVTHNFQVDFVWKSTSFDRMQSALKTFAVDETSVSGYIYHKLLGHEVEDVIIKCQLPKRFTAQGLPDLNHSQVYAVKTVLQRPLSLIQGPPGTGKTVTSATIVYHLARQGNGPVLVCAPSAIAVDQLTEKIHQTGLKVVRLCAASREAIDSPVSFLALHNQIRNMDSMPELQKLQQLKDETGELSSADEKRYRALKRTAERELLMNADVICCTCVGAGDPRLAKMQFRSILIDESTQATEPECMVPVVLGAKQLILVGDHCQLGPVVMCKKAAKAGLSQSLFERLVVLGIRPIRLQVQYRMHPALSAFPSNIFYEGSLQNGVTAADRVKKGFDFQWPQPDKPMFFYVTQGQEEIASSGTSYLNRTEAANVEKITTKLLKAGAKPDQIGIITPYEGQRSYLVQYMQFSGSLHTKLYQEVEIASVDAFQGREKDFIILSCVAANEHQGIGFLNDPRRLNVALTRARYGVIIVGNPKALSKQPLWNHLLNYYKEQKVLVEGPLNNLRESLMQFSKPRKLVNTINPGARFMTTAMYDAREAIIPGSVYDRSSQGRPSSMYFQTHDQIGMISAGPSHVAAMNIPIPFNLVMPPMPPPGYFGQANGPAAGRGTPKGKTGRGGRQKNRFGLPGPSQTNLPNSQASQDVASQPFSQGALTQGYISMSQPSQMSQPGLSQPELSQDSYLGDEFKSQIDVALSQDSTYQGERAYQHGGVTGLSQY

UPF1-3F (wt, UPF1R-3F) = biological target: T2, UPF1-3F (wt, UPF1R-3F) (human, UniProt Q92900-2 1-1118); test: MST
T2 sequence: T1 sequence with A524N, A547K, A843R

## UUUUUUUUUUUUUUUUUUUUUUUUUUUUUU (ssRNA) [U30 RNA]
[1]
  binding result: no binding
UPF1-3F (wt, UPF1R-3F)
  Kd: 25.3 ± 4.43 nM
